Data published in US20100150834A1, “HIGH AFFINITY EPHB RECEPTOR BINDING COMPOUNDS AND METHODS OF USE THEREOF” (priority 2006, published 2010).
No end group written: not given here.

Experiments:
[1] = biological target: T1, murine EphB4/murine ephrin-B2 (Mus musculus, UniProt P54761); test: Inhibition of murine EphB4-AP binding to immobilized murine ephrin-B2-Fc (Table 4); settings: based on the estimated concentration of peptide-coupled PEG molecules, No PEG control not biotinylated
T1 sequence (P54761 16-539 limits assumed): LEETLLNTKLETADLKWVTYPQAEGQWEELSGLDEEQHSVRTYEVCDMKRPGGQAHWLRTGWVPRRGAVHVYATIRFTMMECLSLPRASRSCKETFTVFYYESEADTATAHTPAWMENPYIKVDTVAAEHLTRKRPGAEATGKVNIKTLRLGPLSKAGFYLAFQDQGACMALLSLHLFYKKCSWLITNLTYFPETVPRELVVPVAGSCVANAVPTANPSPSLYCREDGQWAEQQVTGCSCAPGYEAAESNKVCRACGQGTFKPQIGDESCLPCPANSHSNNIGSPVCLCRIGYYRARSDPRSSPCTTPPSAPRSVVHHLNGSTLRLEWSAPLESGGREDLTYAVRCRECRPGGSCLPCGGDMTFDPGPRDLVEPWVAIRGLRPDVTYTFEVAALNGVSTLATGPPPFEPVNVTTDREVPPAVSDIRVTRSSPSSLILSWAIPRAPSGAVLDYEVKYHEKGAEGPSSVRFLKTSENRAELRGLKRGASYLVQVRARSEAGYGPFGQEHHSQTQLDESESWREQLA
Description: The IC50 values in Table 4 were obtained from inhibition assays. […] Reati-bind Protein A coated strip plates were washed three times with wash buffer TBST/Ca. Plates were coated with murine ephrin-B2-Fc (reconstituted in PBS 200 μg/ml, diluted to 1 μg/ml with TBST/Ca) 100 μl/well for 1 h at ambient temperature. The control used was Human-Fc (1 μg/ml; 100 μl/well); Human-Fc is the control for ephrin-B2-Fc, which contains the extracellular domain of ephrin-B2 fused to the Fc portion of human IgG1. The plates were washed four times with TBST/Ca. For each well was added: PEG-TNYL-RAW-biotin, from PEGylation reaction in Example 2, supra, at different concentrations; 10 μl murine EphB4-Alkaline Phosphatase (EphB4-AP); and TBST/Ca to 50 μl. Plates were incubates for 3 hours at ambient temperature, then washed four times with TBST/Ca. Substrate, 1 mg/ml PNPP in SEAP buffer, was added in the amount of 100 μl/well. (2×SEAP buffer (pH=9.8) was prepared by: adding 2.1 ml diethanolamine and 10 μl 1M MgCl2 to 10 ml (total) water; adjusting pH to 9.8; wrapping in foil and storing at ambient temperature; and diluting with water to 1× on day of use). Optical density analysis (OD405) was performed using a plate reader to determine the extent to which PEG-TNYL-RAW-biotin inhibits the EphB4-ephrin-B2 interaction. […]

murine EphB4 [2] = biological target: T2, murine EphB4 (Mus musculus, UniProt P54761); test: Binding ELISA on immobilized murine EphB4-Fc, streptavidin-HRP detection (Table 3); settings: binding to murine EphB4; based on the estimated concentration of peptide-coupled PEG molecules; read-out: KD ± SE
T2 construct: purchased R&D Systems 446-B4-200
T2 sequence (P54761 16-539 limits assumed): T1 sequence (P54761 16-539 limits assumed)
Description: The dissociation constants in Table 3 were measured in binding assays as described below. Reacti-bind Protein A coated strip plates were washed three times with the wash buffer TBST/Ca (TBS, 0.01% Tween, 1 mM CaCl2). Plates were coated with murine EphB4-Fc (reconstituted in PBS 200 μg/ml, diluted to 1 μg/ml in TBST/Ca) 100 μl/well for 1 hour at ambient temperature. The plates were washed four times with TBST/Ca. PEG-TNYL-RAW-biotin (made by The Burnham Institute, La Jolla, Calif.), obtained from the PEGylation reaction described in Example 2 supra, was added at different concentrations in TBST/Ca (100 μl/well) for 1 hour at ambient temperature. The plates were again washed four times with TBST/Ca. Streptavidin-HRP (1:2000) in 100 μl TBST/Ca was added for 1 hour at ambient temperature. The plates were again washed four times with TBST/Ca.

EphB6 = biological target: T3, EphB6 (Homo sapiens, UniProt O15197); test: EphB receptor specificity (% binding), Table 1; settings: binding to EphB6
T3 sequence (O15197 32-1021): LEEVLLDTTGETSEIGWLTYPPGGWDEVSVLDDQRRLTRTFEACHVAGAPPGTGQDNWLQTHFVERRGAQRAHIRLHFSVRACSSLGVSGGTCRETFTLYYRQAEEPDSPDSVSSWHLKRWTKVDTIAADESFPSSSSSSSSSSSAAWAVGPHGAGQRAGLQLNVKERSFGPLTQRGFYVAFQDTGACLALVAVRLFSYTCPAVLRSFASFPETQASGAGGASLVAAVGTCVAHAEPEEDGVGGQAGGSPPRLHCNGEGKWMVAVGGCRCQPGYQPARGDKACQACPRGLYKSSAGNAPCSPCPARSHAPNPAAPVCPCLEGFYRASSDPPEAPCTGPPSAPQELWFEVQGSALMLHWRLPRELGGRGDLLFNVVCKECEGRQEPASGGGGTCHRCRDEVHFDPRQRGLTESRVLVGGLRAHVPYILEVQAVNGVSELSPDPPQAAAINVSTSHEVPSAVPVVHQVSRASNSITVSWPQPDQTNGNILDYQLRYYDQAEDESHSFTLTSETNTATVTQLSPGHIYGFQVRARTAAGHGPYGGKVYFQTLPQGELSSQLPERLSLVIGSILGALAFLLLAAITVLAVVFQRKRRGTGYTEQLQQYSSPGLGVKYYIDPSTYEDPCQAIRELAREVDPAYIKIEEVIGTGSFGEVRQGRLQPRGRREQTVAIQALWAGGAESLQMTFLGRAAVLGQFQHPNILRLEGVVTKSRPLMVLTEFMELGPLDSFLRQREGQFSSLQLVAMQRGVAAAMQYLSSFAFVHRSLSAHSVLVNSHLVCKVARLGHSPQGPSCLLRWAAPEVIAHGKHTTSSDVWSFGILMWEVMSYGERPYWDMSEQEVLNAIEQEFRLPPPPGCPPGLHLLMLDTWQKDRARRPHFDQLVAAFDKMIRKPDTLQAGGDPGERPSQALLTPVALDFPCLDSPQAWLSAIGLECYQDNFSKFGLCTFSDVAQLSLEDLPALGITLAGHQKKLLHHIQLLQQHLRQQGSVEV

EphB2 = EphB2 (Homo sapiens, UniProt P29323); test: EphB receptor specificity (% binding), Table 1; settings: binding to EphB2
EphB3 = EphB3 (Homo sapiens, UniProt P54753); test: EphB receptor specificity (% binding), Table 1; settings: binding to EphB3
EphB1 = test: EphB receptor specificity (% binding), Table 1; settings: binding to EphB1
EphB4 [3] = biological target: T4, EphB4 (Mus musculus, UniProt P54761); test: EphB receptor specificity (% binding), Table 1; settings: binding to EphB4
T4 sequence (P54761 16-987): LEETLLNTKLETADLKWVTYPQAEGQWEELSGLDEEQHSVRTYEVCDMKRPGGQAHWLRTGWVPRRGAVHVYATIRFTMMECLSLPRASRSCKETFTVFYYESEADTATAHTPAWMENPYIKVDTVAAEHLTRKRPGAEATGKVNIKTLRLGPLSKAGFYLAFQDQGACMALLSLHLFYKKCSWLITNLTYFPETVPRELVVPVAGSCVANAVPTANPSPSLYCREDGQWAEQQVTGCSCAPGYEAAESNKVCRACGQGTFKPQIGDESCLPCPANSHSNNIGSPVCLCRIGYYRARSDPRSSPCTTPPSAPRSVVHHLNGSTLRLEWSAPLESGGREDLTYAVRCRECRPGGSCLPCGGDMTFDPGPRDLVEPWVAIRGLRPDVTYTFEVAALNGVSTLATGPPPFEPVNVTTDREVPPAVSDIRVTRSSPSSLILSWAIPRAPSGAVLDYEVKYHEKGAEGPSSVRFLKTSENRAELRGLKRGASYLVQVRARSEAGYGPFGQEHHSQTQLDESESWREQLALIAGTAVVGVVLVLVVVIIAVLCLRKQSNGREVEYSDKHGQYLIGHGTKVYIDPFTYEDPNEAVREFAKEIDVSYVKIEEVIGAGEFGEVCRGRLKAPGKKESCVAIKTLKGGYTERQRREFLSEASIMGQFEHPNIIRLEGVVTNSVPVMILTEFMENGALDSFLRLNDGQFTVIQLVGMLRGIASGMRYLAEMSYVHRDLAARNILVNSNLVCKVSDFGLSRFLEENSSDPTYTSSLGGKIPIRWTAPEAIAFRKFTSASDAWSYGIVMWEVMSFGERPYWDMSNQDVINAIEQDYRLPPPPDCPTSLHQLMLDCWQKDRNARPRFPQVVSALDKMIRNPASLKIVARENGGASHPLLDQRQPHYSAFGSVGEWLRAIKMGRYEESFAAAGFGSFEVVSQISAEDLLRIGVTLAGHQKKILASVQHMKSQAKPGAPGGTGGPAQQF

murine EphB4 ectodomain = biological target: T5, murine EphB4 ectodomain (Mus musculus, UniProt P54761); test: Inhibition of murine ephrin-B2 AP binding to immobilized murine EphB4 ectodomain (Example 4)
T5 construct: Wells coated with the murine EphB4 ectodomain
T5 sequence (P54761 16-539 limits assumed): T1 sequence (P54761 16-539 limits assumed)
Description: Wells coated with the murine EphB4 ectodomain were incubated with murine ephrin-B2 AP and different concentrations of the indicated peptides. Ephrin-B2 AP binding to the immobilized EphB4 receptor ectodomain was measured in the presence of various concentrations of the peptides and detected by measuring alkaline phosphatase activity. Ephrin-B2 AP binding in the presence of peptide was normalized to binding in the absence of peptide.

EphB4 [4] = biological target: T6, EphB4 (Homo sapiens, UniProt P54760); test: EphB4 tyrosine phosphorylation in MDA-MB-231 breast cancer cells (immunoprecipitation, PTyr immunoblot); type: cell-based; settings: 2 μg/ml, clustered with anti-Fc antibodies, 20 minutes, MDA-MB-231 cells (FIG. 5E)
T6 construct: endogenous in cells; host or cells: MDA-MB-231 breast cancer cells
T6 sequence (P54760 16-987): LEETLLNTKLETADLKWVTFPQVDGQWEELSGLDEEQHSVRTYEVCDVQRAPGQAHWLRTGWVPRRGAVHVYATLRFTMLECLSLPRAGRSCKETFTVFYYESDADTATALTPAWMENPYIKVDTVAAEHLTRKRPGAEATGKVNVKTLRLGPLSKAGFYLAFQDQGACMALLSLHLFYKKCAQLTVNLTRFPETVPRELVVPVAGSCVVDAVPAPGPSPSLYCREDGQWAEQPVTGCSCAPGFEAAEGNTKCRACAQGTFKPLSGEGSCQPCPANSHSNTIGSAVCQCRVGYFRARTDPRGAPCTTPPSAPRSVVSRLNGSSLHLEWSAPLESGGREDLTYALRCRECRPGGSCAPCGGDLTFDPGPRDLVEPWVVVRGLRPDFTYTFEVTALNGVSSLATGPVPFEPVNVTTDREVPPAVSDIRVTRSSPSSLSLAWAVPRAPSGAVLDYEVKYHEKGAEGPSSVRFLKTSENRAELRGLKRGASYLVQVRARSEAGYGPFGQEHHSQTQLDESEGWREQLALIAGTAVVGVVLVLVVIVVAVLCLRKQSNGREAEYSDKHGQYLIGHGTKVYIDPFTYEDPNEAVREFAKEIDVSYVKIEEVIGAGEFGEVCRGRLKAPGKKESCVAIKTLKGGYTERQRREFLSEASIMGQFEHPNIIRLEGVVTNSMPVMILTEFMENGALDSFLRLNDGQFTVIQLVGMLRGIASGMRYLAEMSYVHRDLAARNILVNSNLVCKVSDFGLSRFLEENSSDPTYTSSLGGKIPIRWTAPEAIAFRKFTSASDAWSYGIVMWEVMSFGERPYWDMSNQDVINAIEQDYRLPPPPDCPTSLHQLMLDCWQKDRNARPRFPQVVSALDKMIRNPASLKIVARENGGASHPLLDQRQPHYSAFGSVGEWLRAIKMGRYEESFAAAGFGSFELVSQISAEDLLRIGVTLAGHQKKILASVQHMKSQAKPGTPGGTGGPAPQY
Description: EphB4 tyrosine phosphorylation was detected in EphB4 immunoprecipitates by immunoblotting with anti-phosphotyrosine antibodies (PTyr). […] Cells were also stimulated with 1 μg/ml ephrin-B2 Fc or human Fc as positive and negative controls, respectively.

[5] = Half-life of TNYL-RAW Fc in HEK293 cell culture medium; type: in vitro ADME; settings: purified from medium in which HEK293 cells were grown for 4 days
murine EphB4 [6] = biological target: T2, murine EphB4; test: TNYL-RAW Fc immobilized on protein A ELISA plates, binding of murine EphB4 AP; settings: purified from HEK293 cell culture supernatants (FIG. 5B)

Chain of EphB3 (P54753 34-998): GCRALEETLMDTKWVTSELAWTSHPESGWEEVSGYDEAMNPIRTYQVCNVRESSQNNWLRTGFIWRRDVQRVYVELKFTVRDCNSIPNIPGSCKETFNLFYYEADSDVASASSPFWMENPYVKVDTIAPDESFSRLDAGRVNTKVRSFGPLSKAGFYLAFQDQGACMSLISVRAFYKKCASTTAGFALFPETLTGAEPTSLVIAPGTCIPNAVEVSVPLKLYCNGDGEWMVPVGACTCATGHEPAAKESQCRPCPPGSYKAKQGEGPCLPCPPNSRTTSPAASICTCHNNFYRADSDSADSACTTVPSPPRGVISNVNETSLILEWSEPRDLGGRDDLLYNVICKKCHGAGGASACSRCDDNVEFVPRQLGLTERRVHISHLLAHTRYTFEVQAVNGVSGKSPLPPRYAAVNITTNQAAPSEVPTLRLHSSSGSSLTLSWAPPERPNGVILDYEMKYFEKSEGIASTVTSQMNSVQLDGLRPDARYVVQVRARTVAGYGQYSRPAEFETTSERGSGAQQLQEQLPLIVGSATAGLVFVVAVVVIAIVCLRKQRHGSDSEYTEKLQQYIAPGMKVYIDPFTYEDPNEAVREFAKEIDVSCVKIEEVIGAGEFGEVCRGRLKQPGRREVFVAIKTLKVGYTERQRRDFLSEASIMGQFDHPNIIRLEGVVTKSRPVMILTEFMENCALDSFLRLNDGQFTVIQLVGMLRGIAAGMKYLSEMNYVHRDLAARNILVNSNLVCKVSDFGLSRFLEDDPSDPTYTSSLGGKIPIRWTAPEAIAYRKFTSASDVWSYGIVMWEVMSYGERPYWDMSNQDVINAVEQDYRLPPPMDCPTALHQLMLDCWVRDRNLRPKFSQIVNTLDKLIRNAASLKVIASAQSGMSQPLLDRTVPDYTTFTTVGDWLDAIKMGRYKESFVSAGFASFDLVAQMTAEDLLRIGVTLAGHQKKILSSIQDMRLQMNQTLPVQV
Chain of EphB2 (P29323 19-1055): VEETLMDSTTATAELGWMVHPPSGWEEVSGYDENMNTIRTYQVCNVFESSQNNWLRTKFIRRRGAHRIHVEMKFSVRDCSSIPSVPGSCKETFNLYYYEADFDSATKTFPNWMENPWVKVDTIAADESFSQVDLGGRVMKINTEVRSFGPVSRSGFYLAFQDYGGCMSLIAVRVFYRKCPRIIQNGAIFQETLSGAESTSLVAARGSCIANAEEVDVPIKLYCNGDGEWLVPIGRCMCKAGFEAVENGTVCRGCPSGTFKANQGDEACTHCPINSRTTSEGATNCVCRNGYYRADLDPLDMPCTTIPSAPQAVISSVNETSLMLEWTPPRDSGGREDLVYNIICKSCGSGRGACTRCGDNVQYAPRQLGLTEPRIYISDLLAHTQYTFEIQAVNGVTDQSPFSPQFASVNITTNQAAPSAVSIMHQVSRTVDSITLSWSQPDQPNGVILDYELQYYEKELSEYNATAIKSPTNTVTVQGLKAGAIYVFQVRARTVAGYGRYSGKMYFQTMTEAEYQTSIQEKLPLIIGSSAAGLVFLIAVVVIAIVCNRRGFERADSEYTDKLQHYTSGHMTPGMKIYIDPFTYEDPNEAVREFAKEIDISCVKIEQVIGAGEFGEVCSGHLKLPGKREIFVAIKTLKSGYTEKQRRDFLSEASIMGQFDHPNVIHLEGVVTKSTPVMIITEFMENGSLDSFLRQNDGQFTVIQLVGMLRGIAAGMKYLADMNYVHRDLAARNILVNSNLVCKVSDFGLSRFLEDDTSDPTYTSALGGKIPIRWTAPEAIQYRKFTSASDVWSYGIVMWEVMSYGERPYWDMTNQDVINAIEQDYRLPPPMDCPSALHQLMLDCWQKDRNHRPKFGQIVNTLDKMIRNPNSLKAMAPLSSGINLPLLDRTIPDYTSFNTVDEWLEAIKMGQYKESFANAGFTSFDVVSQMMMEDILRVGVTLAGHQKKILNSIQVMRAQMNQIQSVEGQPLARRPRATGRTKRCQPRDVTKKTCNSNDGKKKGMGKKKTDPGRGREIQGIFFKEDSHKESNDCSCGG

10 Kd (monomer): one TNYL-RAW peptide (with biotin) conjugated to a 10 kDa PEG molecule (TNYLFSPNGPIARAW; also: conjugated to a 10 kDa PEG, site not given here, biotin, position not given here)
IC50 [1]: 21 ± 5 nM
Kd (murine EphB4 [2]): 1.4 ± 0.7 nM

26 (LPHGPVAAWDA; EphB4-binding peptide) [compound 26]
EphB Receptor Specificity (% Binding) B6 (EphB6): 4%
EphB Receptor Specificity (% Binding) B2 (EphB2): 15%
EphB Receptor Specificity (% Binding) B3 (EphB3): 2%
EphB Receptor Specificity (% Binding) B1 (EphB1): 2%
EphB Receptor Specificity (% Binding) B4 (EphB4 [3]): 100%

LFSPNGPIARAW [L-RAW]
IC50 (murine EphB4 ectodomain): > 10000 nM

TNYL-RAW Fc fusion protein: TNYL-RAW peptide, GSGSK linker and human Fc of IgG1; two fusion proteins dimerize via the Fc domain (TNYLFSPNGPIARAWGSGSK-{human IgG1 Fc}; also: dimerizes via the Fc domain)
EphB4 tyrosine phosphorylation (EphB4 [4]): did not stimulate EphB4 tyrosine phosphorylation
half-life [5]: appears to be longer than that of the synthetic peptide without Fc
binding to EphB4 AP (murine EphB4 [6]): able to bind EphB4 AP with substantial affinity
